According to article PMC9226187, “Probing TDP-43 condensation using an in silico designed aptamer”:

Biological target: TDP-43 RRM1-2 (UniProt Q13148 102-269)
Assay: BLI; BLI: 10 mM potassium phosphate pH 7.2, 150 mM KCl, 0.01% Tween20, 25 °C; biotin-RNA on streptavidin sensors, protein 20 nM-20 µM; PAINT in PBS
Conditions: protein: recombinant, tags: His6-SUMO tag cleaved (TEV)

Chain of TDP-43 RRM1-2 (Q13148 102-269): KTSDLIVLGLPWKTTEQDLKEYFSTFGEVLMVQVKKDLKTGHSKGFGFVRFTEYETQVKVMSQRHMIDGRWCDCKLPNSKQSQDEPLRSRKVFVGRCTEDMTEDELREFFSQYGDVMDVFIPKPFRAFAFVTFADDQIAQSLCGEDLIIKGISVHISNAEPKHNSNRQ

Binder | Kd (label: 5' biotin) [nM] | Kd (label: 3' biotin, linear, single-stranded) [nM]
AGCAACACCG (ssRNA) [nApt-1] | 1730 | –
CGGUGUUGCU (ssRNA) [Apt-1] | – | 100 ± 10
